Results on nine substances are retold here after publication PMC4794775.

Where only a bound is given, the exact number is not on record here.

The target in test [1] is RopB-CTD Y224H (Streptococcus pyogenes (group A Streptococcus) strain MGAS10870). The test is described as follows: SEC.
Test [2] deals with RopB-CTD R226A (Streptococcus pyogenes (group A Streptococcus) strain MGAS10870). The test is described as follows: SEC. (Size exclusion chromatography separates by hydrodynamic size, large species first.)
The target of test [3] is RopB-CTD Y224A (Streptococcus pyogenes (group A Streptococcus) strain MGAS10870). The test is described as follows: SEC.
The target of test [4] is RopB-CTD C222A (Streptococcus pyogenes (group A Streptococcus) strain MGAS10870). The test is described as follows: SEC.
For test [5], the target named is RopB-CTD I255A (Streptococcus pyogenes (group A Streptococcus) strain MGAS10870). The test is described as follows: SEC.
Test [6] concerns the target full-length RopB (Streptococcus pyogenes (group A Streptococcus) strain MGAS10870).
The target in test [7] is RopB-CTD C227Y (Streptococcus pyogenes (group A Streptococcus) strain MGAS10870). The test is described as follows: SEC.
Test [8] deals with RopB-CTD R226Q (Streptococcus pyogenes (group A Streptococcus) strain MGAS10870). The test is described as follows: SEC.
For test [9], the target named is RopB C-terminal domain (RopB-CTD, amino acids 56-280), wild type (Streptococcus pyogenes (group A Streptococcus) strain MGAS10870). The test is described as follows: SEC.

Turning to RopB-CTD Y224H (domain or fragment), the stoichiometry N in test [1] came to 2.

Substance RopB-CTD R226A (domain or fragment) had a stoichiometry N in [2] of 2.

Regarding RopB-CTD Y224A (domain or fragment), the stoichiometry N in [3] was 2.

In test [4], RopB-CTD C222A (domain or fragment) registered a stoichiometry N of 2.

In the case of RopB-CTD I255A (domain or fragment), in [5], the stoichiometry N was found to be 2.

Consider full-length RopB (natural protein), for which the stoichiometry N in [6] is above 6.

On to RopB-CTD C227Y (domain or fragment), for which, in test [7], the stoichiometry N is 2.

In turn, RopB-CTD R226Q (domain or fragment) yielded a stoichiometry N in test [8] of 2.

As for “RopB C-terminal domain (RopB-CTD, amino acids 56-280), wild type (domain or fragment)”, the stoichiometry N in test [9] was determined as 2.

Broadly, the stoichiometry N is the number of molecules, sites or subunits per partner or assembly.
